In experiment [1] the target is T1, rat frizzled-2 receptor (rat, UniProt Q08464 29-570). The experiment can be described thus: cell-based or functional assay.
The target of experiment [2] is T2, rat frizzled-1 receptor (rat, UniProt Q08463 69-641). Put plainly: cell-based or functional assay.
The target of experiment [3] is T1, rat frizzled-2 receptor. The experiment can be described thus: cell-based or functional assay. The source holds these as a separate data set.
Experiment [4] addresses T2, rat frizzled-1 receptor. Put plainly: cell-based or functional assay. The source holds these as a separate data set.
For experiment [5], the target named is T1, rat frizzled-2 receptor. The experiment can be described thus: inferred by the filing from inhibition curves of Wnt3a-induced luciferase activity in transfected HEK293-superTOPflash cells. How it is done:
To determine the inhibitory constant of UM206-8, HEK293-superTOPflash cells were transfected with either rFzd-1 or -2 and incubated with Wnt3a (10⁻⁹M) in the presence of increasing concentrations of either of the peptides (FIG. 15). For UM206, a biphasic inhibition curve was observed that was best fitted with a two-binding-state model.

A further experiment addresses T3, mouse Fzd-1 (mouse, UniProt O70421 69-642).
T3 construct: whole, on cells; also called mouse frizzled-1
Put plainly: fluorescence imaging of small intestine and kidney sections.

A further experiment concerns the target T4, mouse Fzd-2 (mouse, UniProt Q9JIP6 29-570).
T4 construct: whole, on cells; also called mouse frizzled-2
The experiment can be described thus: rhodamine-labeled UM206 on kidney and small intestine sections.

Data on 25 molecules can be found in patent publication US20120014876A1 (ACADEMISCH ZIEKENHUIS MAASTRICHT, published 2012).

Bridges are numbered along the chain shown (N, C = ends). Where no end group is shown, it is not given here. rhodamine = not defined here; alkyl = not defined here

T1 sequence (Q08464 29-570): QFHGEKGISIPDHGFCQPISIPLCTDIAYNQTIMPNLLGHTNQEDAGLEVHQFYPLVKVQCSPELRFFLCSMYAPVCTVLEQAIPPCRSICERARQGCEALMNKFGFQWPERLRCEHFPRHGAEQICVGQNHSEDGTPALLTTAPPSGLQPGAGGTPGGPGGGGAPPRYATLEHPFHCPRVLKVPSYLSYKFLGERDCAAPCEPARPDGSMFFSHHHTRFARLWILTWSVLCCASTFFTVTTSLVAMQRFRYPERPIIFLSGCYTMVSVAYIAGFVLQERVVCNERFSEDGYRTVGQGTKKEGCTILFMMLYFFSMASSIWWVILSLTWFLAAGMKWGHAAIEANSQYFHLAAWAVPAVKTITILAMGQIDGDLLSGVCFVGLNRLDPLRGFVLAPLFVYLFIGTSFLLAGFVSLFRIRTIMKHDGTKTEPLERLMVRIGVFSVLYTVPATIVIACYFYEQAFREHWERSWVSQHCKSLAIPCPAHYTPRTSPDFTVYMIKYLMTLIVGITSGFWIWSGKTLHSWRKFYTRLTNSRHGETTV
T2 sequence (Q08463 69-641): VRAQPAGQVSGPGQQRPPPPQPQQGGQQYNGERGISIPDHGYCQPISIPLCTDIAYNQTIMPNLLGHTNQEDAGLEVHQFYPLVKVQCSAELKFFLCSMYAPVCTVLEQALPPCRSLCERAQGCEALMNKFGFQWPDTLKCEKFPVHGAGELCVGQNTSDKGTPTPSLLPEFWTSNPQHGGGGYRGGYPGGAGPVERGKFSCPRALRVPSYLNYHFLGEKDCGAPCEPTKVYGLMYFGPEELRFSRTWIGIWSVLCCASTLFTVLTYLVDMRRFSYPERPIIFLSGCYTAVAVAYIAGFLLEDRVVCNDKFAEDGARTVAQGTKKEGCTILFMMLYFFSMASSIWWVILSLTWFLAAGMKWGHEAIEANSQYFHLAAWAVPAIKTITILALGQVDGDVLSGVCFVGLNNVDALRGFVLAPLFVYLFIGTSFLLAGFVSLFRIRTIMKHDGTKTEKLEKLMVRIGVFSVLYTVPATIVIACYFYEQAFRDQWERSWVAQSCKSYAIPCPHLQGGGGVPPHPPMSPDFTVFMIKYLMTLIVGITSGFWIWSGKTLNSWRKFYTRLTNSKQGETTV
T3 sequence (O70421 69-642): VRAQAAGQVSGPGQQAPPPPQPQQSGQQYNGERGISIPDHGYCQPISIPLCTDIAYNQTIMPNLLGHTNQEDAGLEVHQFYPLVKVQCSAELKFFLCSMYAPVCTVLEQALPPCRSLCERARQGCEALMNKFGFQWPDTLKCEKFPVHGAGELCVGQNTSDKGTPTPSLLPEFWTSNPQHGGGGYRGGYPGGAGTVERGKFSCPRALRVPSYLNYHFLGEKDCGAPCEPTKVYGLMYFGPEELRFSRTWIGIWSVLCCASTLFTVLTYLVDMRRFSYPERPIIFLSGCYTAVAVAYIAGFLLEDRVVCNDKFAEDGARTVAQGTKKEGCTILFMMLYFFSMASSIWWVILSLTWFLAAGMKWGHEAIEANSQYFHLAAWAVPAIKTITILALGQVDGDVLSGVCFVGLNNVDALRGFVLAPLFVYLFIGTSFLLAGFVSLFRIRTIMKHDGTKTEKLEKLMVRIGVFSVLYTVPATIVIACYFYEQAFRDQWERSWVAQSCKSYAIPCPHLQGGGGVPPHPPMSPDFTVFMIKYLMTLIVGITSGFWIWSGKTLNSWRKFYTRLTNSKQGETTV
T4 sequence (Q9JIP6 29-570): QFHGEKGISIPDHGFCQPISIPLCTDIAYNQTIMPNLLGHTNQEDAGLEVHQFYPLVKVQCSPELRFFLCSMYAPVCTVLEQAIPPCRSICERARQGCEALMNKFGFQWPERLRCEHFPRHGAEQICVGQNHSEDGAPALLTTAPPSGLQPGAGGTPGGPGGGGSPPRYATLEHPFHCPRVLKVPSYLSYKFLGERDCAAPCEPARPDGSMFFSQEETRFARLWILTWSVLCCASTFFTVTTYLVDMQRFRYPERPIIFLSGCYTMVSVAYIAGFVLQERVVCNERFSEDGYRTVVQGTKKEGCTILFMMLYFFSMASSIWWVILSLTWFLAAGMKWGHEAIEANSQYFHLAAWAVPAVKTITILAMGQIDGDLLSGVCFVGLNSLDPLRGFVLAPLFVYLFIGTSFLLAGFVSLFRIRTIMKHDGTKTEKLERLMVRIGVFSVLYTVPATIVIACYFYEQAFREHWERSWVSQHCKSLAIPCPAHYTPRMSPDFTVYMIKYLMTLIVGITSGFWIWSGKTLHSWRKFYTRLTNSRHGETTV

As for SNKTSEGMDGSEL [UM206 (C = S)], the “% of inhibition of Wnt3a-induced luciferase activity, peptide 1.10^-9 M” value (“% of inhibition … peptide 1.10^-9 M” for short) worked out at 17% in the experiment with rat frizzled-2 receptor [1] and 0% with rat frizzled-1 receptor [2].
As for CNKTSAGMDGCEL-NH2 (cysteine pairing not given here) [UM206 (6 E = A)], the figures for the “% of inhibition … peptide 1.10^-9 M” value with rat frizzled-2 receptor [1] and in the experiment with rat frizzled-1 receptor [2] were 84.7% and 70.8%, respectively.

B1: UM206 (C = C-alkyl) (peptide)
peptide: C(alkyl)NKTSEGMDGC(alkyl)EL-NH2
modifications: not fully specified (N-terminus); reading uncertain; also: alkyl group not given here
As for B1, the “% of inhibition … peptide 1.10^-9 M” value with rat frizzled-2 receptor [1] is 12.4%; in the experiment with rat frizzled-1 receptor [2], 1%.
For the molecule Ac-CNKTSEGMDGCEL-NH2 (disulfide 1-11) [Peptide UM206(S-S)], the “EC50, luciferase activity (amount of agonist that yields 50% of maximum activity)” value with rat frizzled-2 receptor [3] stood at 20 nM; in the experiment with rat frizzled-1 receptor [4], 10 nM.
In the case of CAKTSEGMDGCEL-NH2 (cysteine pairing not given here) [UM206 (2 N = A)], the “% of inhibition … peptide 1.10^-9 M” value with rat frizzled-2 receptor [1] amounted to 79.5%; in the experiment with rat frizzled-1 receptor [2], 68%.
On to CNKASEGMDGCEL-NH2 (cysteine pairing not given here) [UM206 (4 T = A)], for which the “% of inhibition … peptide 1.10^-9 M” value with rat frizzled-2 receptor [1] was determined as 59.4%; in the experiment with rat frizzled-1 receptor [2] it was 28.1%.
On to CNKTSEGMAGCEL-NH2 (cysteine pairing not given here) [UM206 (9 D = A)], for which the “% of inhibition … peptide 1.10^-9 M” value turned out to be 60.5% with rat frizzled-2 receptor [1] and 40.5% with rat frizzled-1 receptor [2].
Taken in the same sequence, the figures for CNVSSHGIDGCDL-NH2 (cysteine pairing not given here) [peptide CNVSSHGIDGCDL (SEQ ID NO:18)] were 62.4% and 45.3%.
As for CNKTSEGMDGC-NH2 (cysteine pairing not given here) [UM206 - (deletion of the C-terminal Glutamic acid and Leucine)], the “% of inhibition … peptide 1.10^-9 M” value was 61.2% with rat frizzled-2 receptor [1] and 18% in the experiment with rat frizzled-1 receptor [2].
Take CNKTSEGMDGCEA-NH2 (cysteine pairing not given here) [UM206 (13 L = A)]: the “% of inhibition … peptide 1.10^-9 M” value with rat frizzled-2 receptor [1] amounted to 86.5%; with rat frizzled-1 receptor [2], 65.9%.
Take CNKTSEGMDGCAL-NH2 (cysteine pairing not given here) [UM206 (12 E = A)]: the “% of inhibition … peptide 1.10^-9 M” value in the experiment with rat frizzled-2 receptor [1] amounted to 85.5%; with rat frizzled-1 receptor [2], 65.9%.

B2: Peptide UM206 (peptide)
peptide: Ac-CNKTSEGMDGCEL-NH2
modifications: cysteine pairing not given here
notes: Linear form, no disulfide bridge between the two cysteines; also called antagonist UM206
For B2, the “fold higher affinity than to rFzd-1” value with rat frizzled-2 receptor [5] was roughly 100 fold. For the same molecule, the “IC50, inhibition of Wnt3a (10^-9 M)-induced luciferase activity, two-binding-state fit, high affinity site” value in the experiment with rat frizzled-2 receptor [3] was found to be 0.0169 nM. Besides, the figures for the “IC50, inhibition of Wnt3a-induced luciferase activity” value with rat frizzled-2 receptor [3] and with rat frizzled-1 receptor [4] were 0.1 nM and 1 nM, respectively. For the same molecule, in the experiment with rat frizzled-1 receptor [4], the “IC50, inhibition of Wnt3a (10^-9 M)-induced luciferase activity, two-binding-state fit, major binding site” value is 2.1 nM. Further, the “% of inhibition … peptide 1.10^-9 M” value in the experiment with rat frizzled-2 receptor [1] is 75.1%; with rat frizzled-1 receptor [2] it was 72.2%.

B3: Wnt3a (ligand)
chain: SYPIWWSLAVGPQYSSLGSQPILCASIPGLVPKQLRFCRNYVEIMPSVAEGIKIGIQECQHQFRGRRWNCTTVHDSLAIFGPVLDKATRESAFVHAIASAGVAFAVTRSCAEGTAAICGCSSRHQGSPGKGWKWGGCSEDIEFGGMVSREFADARENRPDARSAMNRHNNEAGRQAIASHMHLKCKCHGLSGSCEVKTCWWSQPDFRAIGDFLKDKYDSASEMVVEKHRESRGWVETLRPRYTYFKVPTERDLVYYEASPNFCEPNPETGSFGTRDRTCNVSSHGIDGCDLLCCGRGHNARAERRREKCRCVFHWCCYVSCQECTRVYDVHTCK
As for B3, in the experiment with rat frizzled-2 receptor [3], the “fold increase of luciferase activity (TOPflash reporter, HEK cells)” value was 12 fold.
ANKTSEGMDGAEL [UM206 (C = A)]: the entries for the “% of inhibition … peptide 1.10^-9 M” value with rat frizzled-2 receptor [1] and with rat frizzled-1 receptor [2] were 8.39% and 0%, respectively.
As to Ac-GIKECQYQFRHRRWNCSTVD-NH2 (cysteine pairing not given here) [Peptide UM207], the results for the “IC50, inhibition of Wnt3a (10^-9 M)-induced luciferase activity, single binding site fit” value with rat frizzled-2 receptor [3] and with rat frizzled-1 receptor [4] were 15.2 nM and 40 nM, respectively.
Consider CNKTSEGMDGCAA-NH2 (cysteine pairing not given here) [UM206 (12-13 EL = AA)], for which the entries for the “% of inhibition … peptide 1.10^-9 M” value with rat frizzled-2 receptor [1] and in the experiment with rat frizzled-1 receptor [2] were 74.3% and 66.8%, respectively.
For CNATSEGMDGCEL-NH2 (cysteine pairing not given here) [UM206 (3 K = A)], the “% of inhibition … peptide 1.10^-9 M” value with rat frizzled-2 receptor [1] was 84.9%; with rat frizzled-1 receptor [2], 70.8%.
On to CNKASEAMAGCEL-NH2 (cysteine pairing not given here) [UM206 (4 T = A, 7 G = A, 9 D = A)], for which the “% of inhibition … peptide 1.10^-9 M” value stood at 17.5% in the experiment with rat frizzled-2 receptor [1] and 11.2% with rat frizzled-1 receptor [2].
Take CNKTAEGMDGCEL-NH2 (cysteine pairing not given here) [UM206 (5 S = A)]: the “% of inhibition … peptide 1.10^-9 M” value in the experiment with rat frizzled-2 receptor [1] amounted to 87.3%; in the experiment with rat frizzled-1 receptor [2], 74.3%.
For ANKTSEGMDGCEL [UM206 (1 C = A)], the “% of inhibition … peptide 1.10^-9 M” value with rat frizzled-2 receptor [1] was 82.6%; in the experiment with rat frizzled-1 receptor [2], 70.8%.
Turning to CNKTSEAMDGCEL-NH2 (cysteine pairing not given here) [UM206 (7 G = A)], the “% of inhibition … peptide 1.10^-9 M” value in the experiment with rat frizzled-2 receptor [1] was 63.1%; with rat frizzled-1 receptor [2], 52.6%.
Take CNKTSEGADGCEL-NH2 (cysteine pairing not given here) [UM206 (8 M = A)]: the figures for the “% of inhibition … peptide 1.10^-9 M” value with rat frizzled-2 receptor [1] and in the experiment with rat frizzled-1 receptor [2] were 85% and 67.6%, respectively.
Taken in the same sequence, the figures for CNKTSEGMDGAEL [UM206 (11 C = A)] were 84.9% and 67.2%.
For CNKTSEGMDACEL-NH2 (cysteine pairing not given here) [UM206 (10 G = A)] the same measures were 83.3% and 69.9%.

B4: rhodamine-labeled UM206 (peptide)
peptide: Ac-CNK(rhodamine)TSEGMDGCEL-NH2
modifications: cysteine pairing not given here; reading uncertain
notes: UM206 with rhodamine on Lys3; end groups as UM206 (Ac-, -NH2) not restated; also called UM206-rhodamine; UM206-Rhodamine
B4: the binding result with mouse Fzd-1 and with mouse Fzd-2 was “binds” in each case.
